T1: chimeric human/cynomolgus monkey CD89-hotspots (human/cynomolgus monkey chimera, UniProt P24071 22-287)
T1 construct: also called ΔThr58, Gln59; ΔArg73, Arg74, Lys76
T1 chain: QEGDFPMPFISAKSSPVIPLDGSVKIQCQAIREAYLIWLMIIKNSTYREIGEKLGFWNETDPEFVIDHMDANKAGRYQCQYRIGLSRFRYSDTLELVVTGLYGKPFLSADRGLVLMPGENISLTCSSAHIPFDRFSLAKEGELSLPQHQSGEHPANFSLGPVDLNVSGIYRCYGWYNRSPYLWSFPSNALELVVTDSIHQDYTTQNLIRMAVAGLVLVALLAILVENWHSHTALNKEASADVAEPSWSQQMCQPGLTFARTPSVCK

T2: chimeric human/cynomolgus monkey CD89-IV (human/cynomolgus monkey chimera, UniProt P24071 22-287)
T2 construct: also called ΔArg97-Gly121 human EC1-CD89
T2 chain: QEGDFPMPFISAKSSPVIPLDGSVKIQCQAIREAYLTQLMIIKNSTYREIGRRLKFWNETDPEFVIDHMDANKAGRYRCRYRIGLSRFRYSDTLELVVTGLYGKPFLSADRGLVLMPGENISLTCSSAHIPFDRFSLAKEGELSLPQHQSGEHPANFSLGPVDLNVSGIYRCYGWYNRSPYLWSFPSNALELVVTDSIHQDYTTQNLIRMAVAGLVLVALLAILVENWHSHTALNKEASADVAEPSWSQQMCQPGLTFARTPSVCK

T3: chimeric human/cynomolgus monkey CD89-III (human/cynomolgus monkey chimera, UniProt P24071 22-287)
T3 construct: also called ΔGly72-Gly96 human EC1-CD89; III (72-96)
T3 chain: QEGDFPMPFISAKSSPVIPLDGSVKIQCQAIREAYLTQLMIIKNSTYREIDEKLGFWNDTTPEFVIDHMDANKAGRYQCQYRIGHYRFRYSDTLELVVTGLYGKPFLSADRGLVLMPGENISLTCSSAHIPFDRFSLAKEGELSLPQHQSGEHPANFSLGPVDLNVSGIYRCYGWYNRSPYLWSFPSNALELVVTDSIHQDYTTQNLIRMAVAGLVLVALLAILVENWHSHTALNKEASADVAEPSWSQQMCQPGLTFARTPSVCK

T4: chimeric human/cynomolgus monkey CD89-I (human/cynomolgus monkey chimera, UniProt P24071 22-287)
T4 construct: also called ΔGln22-Lys46 human EC1-CD89; I (22-46)
T4 chain: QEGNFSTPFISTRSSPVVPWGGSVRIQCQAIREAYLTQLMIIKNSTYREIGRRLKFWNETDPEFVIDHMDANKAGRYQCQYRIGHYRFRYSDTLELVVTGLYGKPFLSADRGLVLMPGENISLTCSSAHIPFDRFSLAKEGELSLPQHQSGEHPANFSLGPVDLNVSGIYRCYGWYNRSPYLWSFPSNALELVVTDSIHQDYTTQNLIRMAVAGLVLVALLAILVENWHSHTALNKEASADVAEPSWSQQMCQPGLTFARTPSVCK

T5: chimeric human/cynomolgus monkey CD89-II (human/cynomolgus monkey chimera, UniProt P24071 22-287)
T5 construct: also called ΔIle47-Ile71 human EC1-CD89; II (47-71)
T5 chain: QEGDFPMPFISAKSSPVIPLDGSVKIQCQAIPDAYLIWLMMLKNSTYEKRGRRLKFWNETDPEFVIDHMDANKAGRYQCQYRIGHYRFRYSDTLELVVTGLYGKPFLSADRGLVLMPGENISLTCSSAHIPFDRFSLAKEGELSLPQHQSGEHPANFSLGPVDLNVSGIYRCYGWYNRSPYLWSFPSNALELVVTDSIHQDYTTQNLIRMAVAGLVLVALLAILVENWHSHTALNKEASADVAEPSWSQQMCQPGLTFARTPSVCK

T6: chimeric bovine EC1-Fcγ2R/human EC2-CD89 (bovine/human chimera)
T6 chain: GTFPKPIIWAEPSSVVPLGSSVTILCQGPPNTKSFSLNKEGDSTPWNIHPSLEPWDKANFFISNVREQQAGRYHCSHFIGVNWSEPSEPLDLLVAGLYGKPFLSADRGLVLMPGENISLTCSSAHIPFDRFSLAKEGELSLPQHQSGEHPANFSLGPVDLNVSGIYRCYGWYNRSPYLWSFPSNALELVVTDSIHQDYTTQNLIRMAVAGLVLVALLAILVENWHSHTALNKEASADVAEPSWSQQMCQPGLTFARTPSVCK


Experiments:
[1] = biological target: T1, chimeric human/cynomolgus monkey …; assay: FACS, transiently transfected HEK293F, 10 ug/mL; ++ strong, + intermediate, -/+ weak
Experimental: (§1) After 48 hours, the binding of CD89/IgA blocking mouse anti-human CD89 antibodies to aforementioned chimeric human CD89/cynomolgus monkey CD89 constructs on transfected cells was analyzed by FACS analysis. To this end, transient transfected HEK293F cells were put at 10×10⁶ cells/mL in ice-chilled phosphate-buffered saline containing 0.1% BSA (Sigma)/0.05% NaN₃ (PBS/BSA/NaN₃) supplemented with 50 μg/mL human IgGs (blocking Fcγ receptors; Sigma) for 10 minutes at 4° C. Then, 10 μL/tube (ie, 0.1×10⁶ cells) of these cells were incubated with or without 100 μL purified mouse anti-human CD89 antibody at 10 μg/mL (in PBS/BSA/NaN₃) for 30 minutes at 4° C. […] After extensive washing in PBS/BSA/NaN₃, cells were subsequently incubated with 1:200 diluted PE-conjugated goat anti-mouse IgG Fey-specific antibodies (Jackson ImmunoResearch) for 30 minutes at 4° C. After extensive washing in PBS/BSA/NaN₃, cells were fixed in 2% formaldehyde in PBS/BSA/NaN₃ for 30 minutes at 4° C.

[2] = biological target: T2, chimeric human/cynomolgus monkey CD89-IV; assay: as above
Experimental: as §1

[3] = biological target: T3, chimeric human/cynomolgus monkey …; assay: as above
Experimental: as §1

[4] = biological target: T4, chimeric human/cynomolgus monkey CD89-I; assay: as above
Experimental: as §1

[5] = biological target: T7, membrane-bound full-length human CD89 (human, UniProt P24071 22-287); assay: FACS, HEK293F-huCD89, 24 h 37C no NaN3, IgA then Ab 10 ug/mL; pre-bound heat-aggr serum IgA
T7 construct: on stably or transiently transfected HEK293F cells; also called FcalphaRI; huCD89
Experimental: (§2) After extensive washing in PBS/BSA/NaN₃, 1:200 diluted PE-conjugated streptavidin (Jackson ImmunoResearch) was added, and incubated for 30 minutes at 4° C. After extensive washing in PBS/BSA/NaN₃, cells were fixed in 2% formaldehyde in PBS/BSA/NaN₃ for 30 minutes at 4° C.

[6] = biological target: T7, membrane-bound full-length human CD89; assay: FACS, HEK293F-huCD89, 24 h 37C no NaN3, IgA then Ab 10 ug/mL; pre-bound non-aggr serum IgA
Experimental: as §2

[7] = biological target: T5, chimeric human/cynomolgus monkey CD89-II; assay: FACS, transiently transfected HEK293F; - = no binding
Experimental: as §1

[8] = biological target: T7, membrane-bound full-length human CD89; assay: FACS, HEK293F-huCD89, 4C +NaN3, Ab 10 ug/mL then IgA; competitor non-aggr serum IgA
Experimental: Then, 10 μL/tube (ie, 0.1×10⁶ cells) of these cells were incubated with or without 50 μL purified mouse anti-human CD89 antibody at 20 μg/mL (in PBS/BSA/NaN₃) for 30 minutes at 4° C. […] After extensive washing in PBS/BSA/NaN₃, 1:200 diluted PE-conjugated streptavidin (Jackson ImmunoResearch) was added, and incubated for 30 minutes at 4° C. After extensive washing in PBS/BSA/NaN₃, cells were fixed in 2% formaldehyde in PBS/BSA/NaN₃ for 30 minutes at 4° C.

[9] = biological target: T7, membrane-bound full-length human CD89; assay: FACS, HEK293F-huCD89, 4C +NaN3, Ab 10 ug/mL then IgA; competitor heat-aggr serum IgA
Experimental: To mimic human IgA immune complexes, human (serum-derived) IgA (Bethyl Laboratories) was heated at 63° C. for 30 minutes, and cooled down to RT followed by centrifugation at 4° C. 12000×g for 2 minutes to remove any insoluble protein precipitation.
Then, 10 μL/tube (ie, 0.1×10⁶ cells) of these cells were incubated with or without 50 μL purified mouse anti-human CD89 antibody at 20 μg/mL (in PBS/BSA/NaN₃) for 30 minutes at 4° C.

[10] = biological target: T7, membrane-bound full-length human CD89; assay: FACS, HEK293F-huCD89, unlabeled Ab 10 ug/mL first; competitor MIP8a-PE
Experimental: (§3) Then, 10 μL/tube (ie, 0.1×10⁶ cells) of these cells were incubated with or without 100 μL purified mouse anti-human CD89 antibody at 10 μg/mL (in PBS/BSA/NaN₃) for 30 minutes at 4° C. […] After extensive washing in PBS/BSA/NaN₃, cells were fixed in 2% formaldehyde in PBS/BSA/NaN₃ for 30 minutes at 4° C.

[11] = biological target: T7, membrane-bound full-length human CD89; assay: FACS, HEK293F-huCD89, 24 h 37C no NaN3, Ab 10 ug/mL then IgA; competitor heat-aggr serum IgA
Experimental: as §2

[12] = biological target: T7, membrane-bound full-length human CD89; assay: FACS, HEK293F-huCD89, unlabeled Ab 10 ug/mL first; competitor A59-PE
Experimental: as §3

[13] = biological target: T8, recombinant C-terminal polyhistidine-tagged human (extracellular) CD89 (human, UniProt P24071 22-227); assay: ELISA, coated rhuCD89, half-maximum binding
T8 construct: extracellular domain; bought (Sino Biological); also called rhuCD89
Experimental: After extensive washing with PBS/0.05% Tween 20, plates were blocked with PBS/0.05% Tween 20/1% BSA (Roche) for 1 hour at RT. Subsequently, plates were incubated with 50 μL titrated (in block buffer) purified mouse anti-human CD89 antibody/well for 1 hour at RT. […] After extensive washing in PBS/0.05% Tween 20, binding of antibodies on rhuCD89 was determined with 1:5,000 diluted horseradish peroxidase (HRP)-conjugated goat anti-mouse IgG Fey-specific antibodies (Jackson ImmunoResearch) for 1 hour at RT, followed by a ready-to-use solution of TMB substrate (Invitrogen) for colorimetric detection.
After extensive washing with PBS/0.05% Tween 20, plates were blocked with PBS/0.05% Tween 20/1% BSA (Roche) for 1 hour at RT. Subsequently, plates were incubated with and without 50 μL titrated (in block buffer) purified chimeric mouse/human anti-human CD89 antibody/well for 1 hour at RT. After extensive washing in PBS/0.05% Tween 20, binding of antibodies on rhuCD89 was determined with 1:5,000 diluted horseradish peroxidase (HRP)-conjugated goat anti-human IgG Fey-specific antibodies (Jackson ImmunoResearch) for 1 hour at RT, followed by a ready-to-use solution of TMB substrate (Invitrogen) for colorimetric detection.

[14] = biological target: T6, chimeric bovine EC1-Fcγ2R/human EC2-CD89; assay: FACS, transiently transfected HEK293F
[15] = biological target: T7, membrane-bound full-length human CD89; assay: FACS, HEK293F-huCD89, 4C +NaN3, IgA then Ab 10 ug/mL; pre-bound non-aggr serum IgA
Experimental: After this (ie, without washing), 50 μL purified mouse anti-human CD89 antibody at 20 μg/mL (in PBS/BSA/NaN₃) was added to these cells, and incubated for another 30 minutes at 4° C. […] After extensive washing in PBS/BSA/NaN₃, 1:200 diluted PE-conjugated streptavidin (Jackson ImmunoResearch) was added, and incubated for 30 minutes at 4° C. After extensive washing in PBS/BSA/NaN₃, cells were fixed in 2% formaldehyde in PBS/BSA/NaN₃ for 30 minutes at 4° C.

[16] = biological target: T7, membrane-bound full-length human CD89; assay: FACS, HEK293F-huCD89, unlabeled Ab 10 ug/mL first; competitor A3-PE
Experimental: as §3

[17] = biological target: T7, membrane-bound full-length human CD89; assay: FACS, HEK293F-huCD89, 24 h 37C no NaN3, Ab 10 ug/mL then IgA; competitor non-aggr serum IgA
Experimental: as §2

[18] = biological target: T7, membrane-bound full-length human CD89; assay: FACS, HEK293F-huCD89, half-maximum binding
Experimental: Then, 10 μL/tube (ie, 0.1×10⁶ cells) of these cells were incubated with or without 100 μL titrated (in PBS/BSA/NaN₃) purified chimeric mouse/human anti-human CD89 antibody/tube for 30 minutes at 4° C. […] After extensive washing in PBS/BSA/NaN₃, cells were subsequently incubated with 1:200 diluted PE-conjugated goat anti-human IgG Fey-specific antibodies (Jackson ImmunoResearch) for 30 minutes at 4° C. After extensive washing in PBS/BSA/NaN₃, cells were fixed in 2% formaldehyde in PBS/BSA/NaN₃ for 30 minutes at 4° C.

[19] = biological target: T5, chimeric human/cynomolgus monkey CD89-II; assay: FACS, transiently transfected HEK293F, 10 ug/mL; ++ strong, + intermediate, -/+ weak
Experimental: as §1

[20] = biological target: T1, chimeric human/cynomolgus monkey …; assay: FACS, transiently transfected HEK293F; - = no binding
Experimental: as §1

[21] = biological target: T7, membrane-bound full-length human CD89; assay: FACS, HEK293F-huCD89, 4C +NaN3, IgA then Ab 10 ug/mL; pre-bound heat-aggr serum IgA
Experimental: as §2

| Binder | binding result [2] | binding result [3] | binding result [4] | percent IgA binding (remaining) [5] [%] | percent IgA binding [8] [%] | percent IgA binding [9] [%] | % blocking of MIP8a-PE binding [10] [%] | percent IgA binding (remaining) [11] [%] | % blocking of A59-PE binding [12] [%] | EC50 [13] [µg/mL] | binding result [14] | % blocking of A3-PE binding [16] [%] | EC50 [18] [µg/mL] | also measured |
| --- | --- | --- | --- | --- | --- | --- | --- | --- | --- | --- | --- | --- | --- | --- |
| mouse anti-human CD89-specific antibody 30C7 (antibody, mouse IgG1, V domains shown) VH: QVQLQQSGPELVRPGVSVKISCKGSGYTFTDYVMHWVKQSHAKSLEWIGVISTYSGNTNYNQKFKGKATMTVDKSSSTAYMELARLTSEDSAIYYCARESDGYYFDYWGQGTTLTVSS VL: DIVMSQSPSSLAVSAGEKVTMSCKSSQSLLNSRTRKNYLAWYQQKPGQSPKLLIYWASTRESGVPDRFTGSGSGTDFTLTISSVQAEDLAVYYCKQSYNLMYTFGGGTKLEIK | binds | binds | binds | 0 to 25 | 0 to 25 | 0 to 25 | > 90 | 0 to 25 | < 25 | 0.029 | no binding (tested: 10 µg/mL) | < 25 | 0.484 | binding result [1]: binds; percent IgA binding (remaining) [6]: 0 to 25%; binding result [7]: no binding (tested: 10 µg/mL); percent IgA binding [15]: 26 to 50%; percent IgA binding (remaining) [17]: 0 to 25% |
| mouse anti-human CD89-specific antibody 16D6 (antibody, mouse IgG1, V domains shown, also called 16D16) VH: QVQLQQSGAELMKPGASVKISCKATGYTFSTYWIEWVKQRPGHGLEWIGEILPGSGSANYNEKFKGKATFTADTSSNTAYMQLSSLTFEDSAVYYCAKGFGSPYYYAMDYWGQGTSVTVSS VL: EIVLTQSPALMAASPGEKVTITCSVSSSISSSNLHWYQQKSETSPKPWIYGTSKLASGVPVRFSGSGSGTSYSLTISNMEAEDAATYYCQQWSSFPLTFGGGTKLEIK | binds | binds | binds | 76 to 125 | 0 to 25 | 0 to 25 | < 25 | 76 to 125 | < 25 | 0.119 | no binding (tested: 10 µg/mL) | < 25 | 1.62 | binding result [19]: binds; binding result [20]: no binding (tested: 10 µg/mL); percent IgA binding [21]: 76 to 125% |

Reference: patent US20210388084A1 (JJP BIOLOGICS SP Z O O, published 2021)
